The source of these data is doi:10.1101/2025.11.18.25340499 (medRxiv, 2025).

For experiment [1], the target named is T1, MuSK Bait (Homo sapiens (species of MuSK not …, UniProt O15146)). The experiment in a line: SPR.
In experiment [2] the target is T1, MuSK Bait. The experiment in a line: AlphaScreen or HTRF. On the technique in general: In Alpha technology, singlet oxygen from a donor bead excites a nearby acceptor bead.

B1: 13-3B5 (antibody, V domains shown)
VH: QVQLVQSGAVVAKPGASVQVSCKTSGYTFTGQYLHWVRQAPGQGLEWIGWINPSSGVTKFAEKFEGRATMTRDTSITTAYIDLRSLRSDDTATYYCATLSLGVYYVGMVAWGQGTLVTVSS
VL: SYELTQPPSVSVSPGQTATITCSGDGLAQQHVYWFQQRPGQAPLLIIYKDIERPSGIPERFSGSSSGTTAMLTISGVQAEDEADYYCQSGDRTATSVLFGGGTKMTVL
For the molecule B1, in experiment [1], the binding result is on record as “binds”.

B2: MuSK1B (antibody, V domains shown)
VH: EVQLVEWGAGLLKPSETLSLTCAVYGGSFSGDYWWTWIRQPPGKGLEWIGEIDHTGNTNYNPSLKSRLTLSVDMSKNHFSLKLTSVTAADTALYFCARQEGLGYYDSWGQGTLVTVSS
VL: SYELTQSPSVSVSPGQTANITCSGDKLGDRYASWYQQKPAQSPVLVIYQDDRRPSGIPERFSGSNSGNTATLTISGTQGMDEADYYCQAWDGTTVFGGGTKLTVL
B2: in experiment [2], the binding result is listed as “binds”.

B3: 11-3F6 (antibody, V domains shown)
VH: EVQLVESGGGLVKPGGSLRLSCAASGFTFSSYTMDWVRQAPGKGLEWVSSIGSNGDYIYYADSVRGRFTISRDNAKNSLYLQMNSLRPDDTADYYCARGQLAVAGTHFDYWGRGSLVTVSS
VL: DIQMTQSPSSLSASVGDRVTISCRASQKVNKYVNWYQQTPGKAPRLLIYAASTLQSGVPSRFSGSGSGANFTLTISGLQPEDFAIYFCQQSYSPLCTFGQGTKLEIK
With B3, in experiment [2], the binding result was “binds”.

B4: MuSK1A (antibody, V domains shown)
VH: QVQLVQSGAEVKKPGASVKVSCKTSGYTFNNYDINWVRQAAGQGLEWMGWMNPYSGNTGYAQKFQGRVTMTRNISITTVYMELSSLRSEDTAVYYCAREVRGDTGYGGGSDYWGQGTLVTVSS
VL: SYELTQPPSVSLSPGQTATITCSGDKLDDNYVCWYQQKPGQSPVLVIYQDTMRPSGIPERFSGSNSGNIATLTISGTQAVDEADYYCQAWDGSTVVFGGGTRLTVL
Take B4: the binding result in experiment [2] is given as “binds”.
